# Publication PMC3003441 (Nature cell biology, 2010)
# Biological target: N-terminally flag-tagged Ubr1 (^fUbr1), full length (S. cerevisiae, UniProt P19812 1-1950)
# Test: co-IP
# Sequence of N-terminally flag-tagged Ubr1 (^fUbr1), full length (P19812 whole entry): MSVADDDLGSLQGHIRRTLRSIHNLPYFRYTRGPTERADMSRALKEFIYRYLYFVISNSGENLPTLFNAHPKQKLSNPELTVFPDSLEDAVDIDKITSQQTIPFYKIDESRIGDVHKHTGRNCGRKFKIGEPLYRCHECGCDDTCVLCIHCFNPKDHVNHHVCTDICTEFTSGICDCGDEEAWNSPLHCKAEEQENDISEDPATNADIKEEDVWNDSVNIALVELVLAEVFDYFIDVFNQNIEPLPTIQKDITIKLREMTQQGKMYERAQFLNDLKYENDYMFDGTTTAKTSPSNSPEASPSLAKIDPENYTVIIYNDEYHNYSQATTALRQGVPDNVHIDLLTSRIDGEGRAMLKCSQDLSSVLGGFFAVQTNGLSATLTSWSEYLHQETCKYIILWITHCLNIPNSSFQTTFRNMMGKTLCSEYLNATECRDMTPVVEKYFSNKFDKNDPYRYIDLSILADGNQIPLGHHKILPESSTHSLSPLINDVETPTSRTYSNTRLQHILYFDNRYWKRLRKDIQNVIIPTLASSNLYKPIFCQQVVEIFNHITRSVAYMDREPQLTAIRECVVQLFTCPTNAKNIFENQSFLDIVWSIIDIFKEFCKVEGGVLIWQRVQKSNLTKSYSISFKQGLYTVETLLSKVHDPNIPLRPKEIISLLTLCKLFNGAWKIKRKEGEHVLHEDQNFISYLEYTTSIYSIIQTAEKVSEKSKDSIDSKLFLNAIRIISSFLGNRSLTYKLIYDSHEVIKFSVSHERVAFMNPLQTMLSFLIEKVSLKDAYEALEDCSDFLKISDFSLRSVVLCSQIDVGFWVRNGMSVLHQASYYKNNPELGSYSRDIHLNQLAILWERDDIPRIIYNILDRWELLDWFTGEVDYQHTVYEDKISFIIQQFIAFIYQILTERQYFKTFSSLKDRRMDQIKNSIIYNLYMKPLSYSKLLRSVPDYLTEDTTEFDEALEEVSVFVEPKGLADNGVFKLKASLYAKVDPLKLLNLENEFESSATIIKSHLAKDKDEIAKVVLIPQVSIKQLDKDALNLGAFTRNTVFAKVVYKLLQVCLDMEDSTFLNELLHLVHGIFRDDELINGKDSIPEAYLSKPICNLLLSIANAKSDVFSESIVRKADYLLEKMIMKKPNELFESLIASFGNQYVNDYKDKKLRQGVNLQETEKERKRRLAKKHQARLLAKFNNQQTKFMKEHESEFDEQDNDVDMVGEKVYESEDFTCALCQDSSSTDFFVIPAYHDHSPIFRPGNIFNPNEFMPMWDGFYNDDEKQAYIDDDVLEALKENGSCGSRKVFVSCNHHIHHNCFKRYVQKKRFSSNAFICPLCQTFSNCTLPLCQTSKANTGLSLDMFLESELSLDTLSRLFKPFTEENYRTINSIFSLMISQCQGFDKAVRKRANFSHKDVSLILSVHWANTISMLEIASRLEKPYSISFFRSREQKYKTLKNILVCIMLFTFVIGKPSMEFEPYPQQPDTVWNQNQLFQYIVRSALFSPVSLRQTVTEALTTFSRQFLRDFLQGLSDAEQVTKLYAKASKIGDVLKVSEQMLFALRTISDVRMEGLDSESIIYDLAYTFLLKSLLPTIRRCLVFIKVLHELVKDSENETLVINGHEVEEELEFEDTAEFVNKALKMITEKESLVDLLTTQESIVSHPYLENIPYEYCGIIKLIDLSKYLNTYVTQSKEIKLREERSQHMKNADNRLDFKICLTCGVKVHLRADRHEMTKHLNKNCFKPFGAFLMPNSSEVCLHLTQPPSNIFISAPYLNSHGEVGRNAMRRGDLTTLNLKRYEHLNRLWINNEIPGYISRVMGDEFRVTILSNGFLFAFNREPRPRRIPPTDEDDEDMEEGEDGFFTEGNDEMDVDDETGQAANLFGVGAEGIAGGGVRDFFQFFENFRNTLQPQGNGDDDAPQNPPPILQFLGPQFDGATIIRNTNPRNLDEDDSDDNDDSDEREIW
binder,measurement,value
"flag-tagged Ufd4 (^fUfd4), purified (enzyme, S. cerevisiae, UniProt P33202 1-1483, looked up) MSENNSHNLDEHESHSENSDYMMDTQVEDDYDEDGHVQGEYSYYPDEDEDEHMLSSVGSFEADDGEDDDNDYHHEDDSGLLYGYHRTQNGSDEDRNEEEDGLERSHDNNEFGSNPLHLPDILETFAQRLEQRRQTSEGLGQHPVGRTLPEILSMIGGRMERSAESSARNERISKLIENTGNASEDPYIAMESLKELSENILMMNQMVVDRIIPMETLIGNIAAILSDKILREELELQMQACRCMYNLFEVCPESISIAVDEHVIPILQGKLVEISYIDLAEQVLETVEYISRVHGRDILKTGQLSIYVQFFDFLTIHAQRKAIAIVSNACSSIRTDDFKTIVEVLPTLKPIFSNATDQPILTRLVNAMYGICGALHGVDKFETLFSLDLIERIVQLVSIQDTPLENKLKCLDILTVLAMSSDVLSRELREKTDIVDMATRSFQHYSKSPNAGLHETLIYVPNSLLISISRFIVVLFPPEDERILSADKYTGNSDRGVISNQEKFDSLVQCLIPILVEIYTNAADFDVRRYVLIALLRVVSCINNSTAKAINDQLIKLIGSILAQKETASNANGTYSSEAGTLLVGGLSLLDLICKKFSELFFPSIKREGIFDLVKDLSVDFNNIDLKEDGNENISLSDEEGDLHSSIEECDEGDEEYDYEFTDMEIPDSVKPKKISIHIFRTLSLAYIKNKGVNLVNRVLSQMNVEQEAITEELHQIEGVVSILENPSTPDKTEEDWKGIWSVLKKCIFHEDFDVSGFEFTSTGLASSITKRITSSTVSHFILAKSFLEVFEDCIDRFLEILQSALTRLENFSIVDCGLHDGGGVSSLAKEIKIKLVYDGDASKDNIGTDLSSTIVSVHCIASFTSLNEFLRHRMVRMRFLNSLIPNLTSSSTEADREEEENCLDHMRKKNFDFFYDNEKVDMESTVFGVIFNTFVRRNRDLKTLWDDTHTIKFCKSLEGNNRESEAAEEANEGKKLRDFYKKREFAQVDTGSSADILTLLDFLHSCGVKSDSFINSKLSAKLARQLDEPLVVASGALPDWSLFLTRRFPFLFPFDTRMLFLQCTSFGYGRLIQLWKNKSKGSKDLRNDEALQQLGRITRRKLRISRKTIFATGLKILSKYGSSPDVLEIEYQEEAGTGLGPTLEFYSVVSKYFARKSLNMWRCNSYSYRSEMDVDTTDDYITTLLFPEPLNPFSNNEKVIELFGYLGTFVARSLLDNRILDFRFSKVFFELLHRMSTPNVTTVPSDVETCLLMIELVDPLLAKSLKYIVANKDDNMTLESLSLTFTVPGNDDIELIPGGCNKSLNSSNVEEYIHGVIDQILGKGIEKQLKAFIEGFSKVFSYERMLILFPDELVDIFGRVEEDWSMATLYTNLNAEHGYTMDSSIIHDFISIISAFGKHERRLFLQFLTGSPKLPIGGFKSLNPKFTVVLKHAEDGLTADEYLPSVMTCANYLKLPKYTSKDIMRSRLCQAIEEGAGAFLLS",binding result,binds
